# Source: patent US12012446B2, “Epstein-Barr virus antibodies and uses thereof” (priority 2017, dated 2024)
# Legend:
# [1] = biological target: T1, gp350 protein on gp350 expressing CHO cells (Epstein-Barr virus, UniProt P03200); assay: Flow cytometry of CHO cells stably expressing EBV gp350; format: binding; conditions: for type of gp350 epitope recognized (linear / conformational): concluded from flow cytometry and immunoblot
# T1 construct: stably co-transfected with full-length pCAGGS-gp350/220 and pCI-puro vector; expressed in transfected cells; host or cells: CHO cells
# T1 sequence (P03200 whole entry): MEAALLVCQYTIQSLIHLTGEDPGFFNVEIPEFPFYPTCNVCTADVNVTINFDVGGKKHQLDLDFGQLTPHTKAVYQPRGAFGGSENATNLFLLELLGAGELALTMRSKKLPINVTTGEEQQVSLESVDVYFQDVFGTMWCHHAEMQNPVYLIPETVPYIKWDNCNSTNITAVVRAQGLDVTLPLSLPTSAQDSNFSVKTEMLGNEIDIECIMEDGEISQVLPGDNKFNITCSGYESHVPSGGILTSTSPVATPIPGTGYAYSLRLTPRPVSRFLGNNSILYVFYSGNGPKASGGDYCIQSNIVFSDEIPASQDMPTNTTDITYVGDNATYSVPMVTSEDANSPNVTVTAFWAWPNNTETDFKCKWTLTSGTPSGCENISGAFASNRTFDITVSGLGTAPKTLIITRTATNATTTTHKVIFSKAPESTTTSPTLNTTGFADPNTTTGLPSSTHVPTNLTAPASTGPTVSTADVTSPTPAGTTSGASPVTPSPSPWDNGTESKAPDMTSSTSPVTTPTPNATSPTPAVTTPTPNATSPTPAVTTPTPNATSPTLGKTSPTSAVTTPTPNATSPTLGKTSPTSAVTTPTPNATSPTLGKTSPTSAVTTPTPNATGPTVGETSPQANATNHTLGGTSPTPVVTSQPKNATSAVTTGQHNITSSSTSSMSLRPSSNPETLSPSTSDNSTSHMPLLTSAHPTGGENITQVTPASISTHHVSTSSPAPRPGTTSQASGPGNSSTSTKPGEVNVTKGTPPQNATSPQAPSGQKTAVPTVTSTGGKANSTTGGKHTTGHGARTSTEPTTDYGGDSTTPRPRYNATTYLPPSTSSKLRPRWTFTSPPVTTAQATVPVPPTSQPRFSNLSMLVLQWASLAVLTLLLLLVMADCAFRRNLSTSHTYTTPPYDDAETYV
# Protocol: To assess the ability of purified anti-gp350 mAb to detect surface expression of EBV gp350 protein by flow cytometry, CHO cells that stably express EBV gp350 were harvested and stained with purified anti-gp350 (10 μg/ml), followed by AF488 goat anti-mouse IgG secondary antibody. Flow cytometric analysis was performed on a C-6 FC (BD Biosciences) and data was analyzed using FlowJo Cytometry Analysis software (FlowJo, LLC) as described (47). All the experiments were independently repeated three times.
# These novel antibodies were analyzed by flow cytometric analysis for surface expression of gp350 protein on 10^6 CHO cells transfected with 1 μg of pCAGGS-gp350. gp350 expressing cells were resuspended in PBS, stained with anti-gp350 mAb, which detects the gp350 ED, followed by secondary Ab goat anti-mouse conjugated to AF488. Additionally, western blot analysis was conducted on untransfected and pCAGGS-gp350 transfected CHO lysate. Anti-gp350 mAb 72A1 was used as a positive control (1:100) and anti-gp350 hybridoma clone supernatants were used at 1:50, and anti-mouse secondary antibody was used at 1:2000.
# Flow cytometric analysis of gp350 and gH/gL specificity was performed. CHO wild type cells and gp350 or gH/gL-expressing CHO cells were stained with primary antibodies, followed by secondary goat anti-mouse or anti-human conjugated to AF488. Unstained cells and cells stained with secondary goat anti-mouse or anti-human conjugated to AF488 alone, were used as negative controls.
# [2] = biological target: T2, EBV gp350 stably expressed on CHO cells (Epstein-Barr virus, UniProt P03200); assay: Epitope mapping by competitive cell binding assay with biotinylated mAbs; conditions: for % inhibition of biotinylated 54A1: 1 μg/ml biotinylated 54A1, 500 μg/ml unlabeled mAb; for % inhibition of biotinylated HB1: 1 μg/ml biotinylated HB1, 500 μg/ml unlabeled mAb; for % inhibition of biotinylated HB5: 1 μg/ml biotinylated HB5, 500 μg/ml unlabeled mAb; for % inhibition of biotinylated HB11: 1 μg/ml biotinylated HB11, 500 μg/ml unlabeled mAb; for % inhibition of biotinylated HB17: 1 μg/ml biotinylated HB17, 500 μg/ml unlabeled mAb; for % inhibition of biotinylated HB20: 1 μg/ml biotinylated HB20, 500 μg/ml unlabeled mAb; for % inhibition of biotinylated h72A1: 1 μg/ml biotinylated h72A1, 500 μg/ml unlabeled mAb; for antigen binding competition with biotinylated m72A1 (in words) / % inhibition of biotinylated nAbs (biotinylated m72A1): biotinylated m72A1 1 μg/ml; for antigen binding competition with biotinylated m72A1 (in words): unlabeled mAbs 500-67.5 μg/ml; for % inhibition of biotinylated m72A1: cross-competition, 1 μg/ml biotinylated m72A1, 500 μg/ml unlabeled mAb; for competitive binding versus m72A1 and h72A1 (in words): biotinylated antibodies
# T2 construct: stably co-transfected with full-length pCAGGS-gp350/220 and pCI-puro vector; expressed in transfected cells; host or cells: CHO cells
# T2 sequence (P03200 whole entry): as above
# Protocol: To evaluate conformation epitope mapping of the selected mAbs, competitive binding assays were conducted using biotinylated mAbs. A one-step antibody biotinylation kit (MACS Miltenyi Biotec) was used to biotinylate the mAbs. Approximately 1×10^5 CHO cells that stably expressed EBV gp350 were incubated for 2 hours with serially diluted ([…]) unlabeled competitor mAbs and non-specific anti-KSHV gH/gL 54A1 mAb. After being washed with PBS, the cells were incubated for 2 hours in the presence of 1 μg/ml biotinylated mAbs. To determine maximum binding, cells in which the biotinylated mAb was added in the absence of unlabeled mAbs were included in the assay. Cells were washed with PBS, followed by incubation for 1 hour with anti-biotin AF488 at a dilution of 1:500. After the final wash in PBS, cells were resuspended in 1% paraformaldehyde and analyzed by flow cytometry as described above. Percentage of inhibition was calculated as: 100−[(% fluorescent cells with competitor mAb/% fluorescent cells without competitor mAb)×100]. The complete prevention of binding of a biotinylated mAb by its unlabeled counterpart was used as a validation of the assay, as previously described (84).
# At least seven unique CD21 binding epitopes on EBV gp350 have been predicted (Table 3).
# [3] = biological target: T3, purified EBV gp350/220 (recombinant EBV gp350 ectodomain) (Epstein-Barr virus, UniProt P03200); assay: Indirect ELISA on recombinant EBV gp350 ectodomain; format: binding
# T3 construct: purified EBV gp350 ectodomain protein (AA 4-863); purchased Immune Technology Corporation
# T3 sequence (P03200 4-863): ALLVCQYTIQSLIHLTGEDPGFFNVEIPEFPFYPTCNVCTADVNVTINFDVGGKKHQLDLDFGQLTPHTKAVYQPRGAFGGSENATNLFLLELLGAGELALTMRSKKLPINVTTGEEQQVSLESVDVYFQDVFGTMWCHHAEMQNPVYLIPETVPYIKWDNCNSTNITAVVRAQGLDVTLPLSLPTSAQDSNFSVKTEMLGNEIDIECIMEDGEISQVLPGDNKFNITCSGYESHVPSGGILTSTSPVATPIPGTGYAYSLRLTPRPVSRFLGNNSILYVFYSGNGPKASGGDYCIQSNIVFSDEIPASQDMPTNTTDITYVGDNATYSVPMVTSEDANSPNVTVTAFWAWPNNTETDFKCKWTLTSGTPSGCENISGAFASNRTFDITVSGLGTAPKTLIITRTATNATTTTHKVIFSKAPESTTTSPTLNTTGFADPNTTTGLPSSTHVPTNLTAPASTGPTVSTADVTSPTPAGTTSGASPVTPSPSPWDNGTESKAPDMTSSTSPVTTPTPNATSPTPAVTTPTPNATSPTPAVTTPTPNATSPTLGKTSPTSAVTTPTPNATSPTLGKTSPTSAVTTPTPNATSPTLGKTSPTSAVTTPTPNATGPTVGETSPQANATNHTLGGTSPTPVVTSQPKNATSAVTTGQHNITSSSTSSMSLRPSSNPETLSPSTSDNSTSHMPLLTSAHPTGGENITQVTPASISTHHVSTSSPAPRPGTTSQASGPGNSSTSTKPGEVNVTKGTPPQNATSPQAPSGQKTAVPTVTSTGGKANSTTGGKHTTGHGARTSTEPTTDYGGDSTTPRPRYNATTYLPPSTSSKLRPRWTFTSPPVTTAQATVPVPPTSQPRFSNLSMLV
# Protocol: Briefly, immunoplates (Costar 3590; Corning Incorporated) were coated with 50 μl of 0.5 μg/ml recombinant EBV gp350 ectodomain (Immune Technology Corporation) diluted in 1× phosphate buffered saline (PBS, pH 7.4) and incubated overnight at 4° C. After washing three times with 1×PBS containing 0.05% (v/v) Tween 20 (washing buffer), plates were blocked with 100 μl washing buffer containing 2% (w/v) bovine serum albumin (BSA) (blocking buffer) then incubated for 1 h at room temperature and washed as above. 100 μl of hybridoma supernatant or 50 μl of 10 μg/ml purified mAbs was added to each well (in triplicate) and incubated for 2 h at room temperature. […] The plates were washed as described above, followed by incubation with 50 μl of goat anti-mouse IgG HRP-conjugated secondary antibody (1:2,000 diluted in 1×PBS) at room temperature for 1 h. The plates were washed again and 100 μl of chromogenic substrate 2,2′-azino-bis (3-ethylbenzothiazoline-6-sulphonic acid) (ABTS, Life Science Technologies) was added. The reaction was stopped using 100 μl of ABTS peroxidase stop solution containing 5% sodium dodecyl sulfate (SDS) in water. The absorbance was read at an optical density of 405 nm using an ELISA reader (Molecular Devices). All experiments were performed in triplicate and confirmed in three independent experiments.
# ELISA binding of anti-gp350 and anti-gH/gL to soluble gp350 and gH/gL proteins was performed. Soluble EBV gp350 and gH/gL proteins were used as the target antigen at 0.5 μg/ml. 1× phosphate buffered saline (PBS) was used as negative (not shown) control. Bound antibodies were detected using HRP-conjugated anti-mouse or anti-human IgG (1:2,000).
Molecule,"Flow cytometry (CHO Cells) ([1]; CHO cells stably expressing gp350 on the surface, native/conformational epitopes)",% inhibition of biotinylated 54A1 [2] [%],% inhibition of biotinylated HB1 [2] [%],% inhibition of biotinylated HB5 [2] [%],% inhibition of biotinylated HB11 [2] [%],% inhibition of biotinylated HB17 [2] [%],% inhibition of biotinylated HB20 [2] [%],% inhibition of biotinylated h72A1 [2] [%],antigen binding competition with biotinylated m72A1 (in words) [2],% inhibition of biotinylated m72A1 [2] [%],% inhibition of biotinylated nAbs (biotinylated m72A1) ([2]; unlabeled mAb 67.5 μg/ml) [%],% inhibition of biotinylated nAbs (biotinylated m72A1) ([2]; unlabeled mAb 125 μg/ml) [%],% inhibition of biotinylated nAbs (biotinylated m72A1) ([2]; unlabeled mAb 250 μg/ml) [%],% inhibition of biotinylated nAbs (biotinylated m72A1) ([2]; unlabeled mAb 500 μg/ml) [%],ELISA binding to purified EBV gp350/220 ([3]; purified antibodies 10 μg/ml),type of gp350 epitope recognized (linear / conformational) [1],competitive binding versus m72A1 and h72A1 (in words) [2],"ELISA binding strength to gp350, compared with m72A1 / parental antibody ([3]; soluble gp350 0.5 μg/ml)",ELISA signal relative to negative control 54A1 ([3]; purified antibodies 10 μg/ml)
"h72A1: humanized 72A1 IgG1; heavy and light chain SEQ ID NOs: 180 and 181 (antibody, V domains shown) VH: EVQLVESGGGLVQPGGSLRLSCAASGSSFTDYTMNWMRQSPGKGLEWIGLINPYNGGTRYADSVKGRATLSLDKSKNTAYLQMNSLRAEDTAIYYCAGGLRRVNWFAYWGQGTLVTVSS VL: DAQLTQSPILLSASVGDRVTITCRSSTGAVTTSNYANWVQERTNGSFRGLIGGTNNRVPGVPSRFSGSLSGDDATLTISSLQPEDEADYFCVLWHSNHWVFGAGTKVEIKR","recognized native epitopes of gp350 expressed on CHO cells surface, comparable to m72A1",0,87,97,79,31,26,98,Antigen binding competition was observed,98,89,93,95,98,–,–,–,–,–
"HB11: murine anti-EBV gp350 mAb, IgG1 κ; SEQ ID NO: 120 / 121; neutralizing (antibody, V domains shown, heavy chain mAb HB11; light chain mAb HB11, murine anti-EBV gp350 mAb, IgG1 κ; neutralizing) VH: PSLVKPSQTLSLTCSVTGDSITSGFWNWIRKFPGNKLEYMGYISYSGSTYYNPSLKSRISITRDTSKNQYYLQLNSVTTEDTATYYCARGNGGNYDWYFDVWGAGTTVTVSSAKTTPPSVYPLAPGSAAQTNSMVTLG VL: AIMSASLGEKVTMSCRASSSVNFMNWYQQKSDDSPKLLIYYISNLAPGVPARFSGSGSGNSYSLTISGMEGEDAATYYCQQFTSSPSWTFGGGTKLEIKRADAAPTV",–,–,–,–,–,–,–,–,Antigen binding competition was observed,–,–,–,–,–,+,recognized both linear and conformational epitopes,bound targets that overlapped with those of both m72A1 and h72A1,–,–
"HB20: murine anti-EBV gp350 mAb, IgG2a κ; SEQ ID NO: 128 / 129; neutralizing (antibody, V domains shown, heavy chain mAb HB20; light chain mAb HB20, murine anti-EBV gp350 mAb, IgG2a κ; neutralizing) VH: ELVKPGASVKLSCKASGYTFTSYWIQWVKQRPGQGLEWIGEINPTNGHTNYNEKFKTKATLTVDKSSSTAYMRLSSLTSEDSAVYYCARNLYYYGRPDYWGQGTSVTVSSAKTTAPSVYPLAPVCGDTTGSSVTLG VL: SSLSASLGDRVTISCRASQDIGNYLNWYQQKPDGTVKLLIYYTSRLHSGVPSRFSGSGSGTDYSLTISNLEQEDIATYFCQQGNALPPTFGGGTKLEIKRADAAPTV",–,–,–,–,–,–,–,–,Antigen binding competition was observed,–,–,–,–,–,+,only recognized conformational epitopes,only partial binding to the overlapping targets,–,–
"HB5: murine anti-EBV gp350 mAb, IgG2a κ; SEQ ID NO: 108 / 109; neutralizing (antibody, V domains shown, heavy chain mAb HB5; light chain mAb HB5, murine anti-EBV gp350 mAb, IgG2a κ; neutralizing) VH: AELVRPGASVKISCKAFGYTFTNHNINWVKQRPGQGLDWIGYINPYNDYTSYNQKFKGKATLTVDKSSNTAYMELSSLTSEDSAVYYCARSEGWLRRGAWFAYWGQGTLVTVSAAKTTAPSVYPLAPVCGDTTGSSVTLG VL: AILSVSPGERVSFSCRASQSIGTSIHWYQQRTNDSPRLLIKYASESISGIPPRFSGSGSGTDFTLSINSVESEDIADYHCQQSNSWPMLTFGAGTKLELKRADAAPTV",–,–,–,–,–,–,–,–,Antigen binding competition was observed,–,–,–,–,–,+,recognized both linear and conformational epitopes,bound targets that overlapped with those of both m72A1 and h72A1,"equal to or greater than that of the positive control, m72A1",–
"m72A1: EBV anti-gp350 neutralizing mouse antibody purified from HB168 hybridoma (ATCC); SEQ ID NO: 100 / 101 (antibody, V domains shown, heavy chain mAb 72A1; light chain mAb 72A1) VH: PELVKPGTSMKISCKASGSSFTDYTMNWMKQSHGKNLEWIGLINPYNGGTRYNQKFKGKATLTLDKSSSTAYMEVLSLTSEDSAVYYCAGGLRRVNWFAYWGQGTLVSVSAAKTTPPSVYPLAPGSAAQTNSMVTLG VL: QAVLTQESALTTSPGETVTLTCRSSTGAVTTSNYANWVQEKPDHLFTGLIGGTNNRVPGVPARFSGSLIGDKAALTITGAQTEDEAIYFCVLWHSNHWVFGGGTKLTVL",–,1,82,97,90,37,31,98,–,98,97,94,93,91,+,–,–,–,greater than two times those of anti-KSHV gH/gL mAb 54A1
